Values of other authors in publication PMC10910082.
Read-outs that look alike come from different tables or passages of the source. Each block holds one substance with its values, some of them ahead of it.

Columns and labels:
CD155 (Homo sapiens) [1] = target: CD155 (Homo sapiens) (UniProt P15151)
CD155 (Homo sapiens) [2] = target: CD155 (Homo sapiens) (UniProt P15151); remark: listed apart in the source
CD80 (Homo sapiens) = CD80 (Homo sapiens) (UniProt P33681)
CD86 (Homo sapiens) = CD86 (Homo sapiens) (UniProt P42081)
Sequence of UniProt P42081 (P42081 24-247): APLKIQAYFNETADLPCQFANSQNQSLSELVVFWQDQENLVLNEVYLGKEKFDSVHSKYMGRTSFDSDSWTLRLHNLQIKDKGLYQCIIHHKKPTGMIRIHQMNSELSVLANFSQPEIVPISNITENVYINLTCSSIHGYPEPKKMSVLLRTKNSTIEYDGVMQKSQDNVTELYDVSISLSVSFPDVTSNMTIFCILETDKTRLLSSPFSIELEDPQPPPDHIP

Sequence of UniProt P33681 (P33681 35-242): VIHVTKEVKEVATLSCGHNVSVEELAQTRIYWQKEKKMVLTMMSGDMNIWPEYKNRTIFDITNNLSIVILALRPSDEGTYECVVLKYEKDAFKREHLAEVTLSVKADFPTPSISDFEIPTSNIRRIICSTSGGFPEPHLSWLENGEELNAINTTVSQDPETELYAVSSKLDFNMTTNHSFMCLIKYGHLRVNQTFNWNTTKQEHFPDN

Kd (CD155 (Homo sapiens) [1]): 2 nM
Substance: TIGIT (from UniProt Q495A1)

Kd (CD155 (Homo sapiens) [2]): 116 nM
Substance: CD226 (from UniProt Q15762)

Kd (CD80 (Homo sapiens)): 4000 nM
Kd (CD86 (Homo sapiens)): 27500 nM
Substance: CD28 (from UniProt P10747)
